Experimental findings from paper PMC6565675, “Cryo-electron microscopy structure of an archaeal ribonuclease P holoenzyme” (Nature Communications, 2019) are described below.

The target in assay [1] is T1, Methanocaldococcus jannaschii RNase P protein subunit Rpp30 (Methanocaldococcus jannaschii, UniProt Q58539 1-232).
T1 construct: Rpp30, protein subunit of RNase P of Methanocaldococcus jannaschii; full-length gene cloned; Purified as the (Pop5-Rpp30)2 heterotetramer; two copies in the dimeric holoenzyme; also called MjaRpp30; source: E. coli BL21 (DE3), co-expressed with MjaPop5 from pETDuet, purified (Ni-NTA, heating at 65 °C, ion-exchange, SEC)
T1 sequence (looked up): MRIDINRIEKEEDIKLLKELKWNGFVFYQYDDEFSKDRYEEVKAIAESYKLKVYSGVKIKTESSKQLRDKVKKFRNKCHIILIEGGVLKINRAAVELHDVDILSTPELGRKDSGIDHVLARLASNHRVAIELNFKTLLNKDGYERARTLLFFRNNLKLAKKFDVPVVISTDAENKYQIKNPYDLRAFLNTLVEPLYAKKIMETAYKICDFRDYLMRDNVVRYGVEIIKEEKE
In words: cryo-EM structure; MjaRNase P holoenzyme reconstituted in vitro from RPR and the purified protein components, purified by SEC; alone (4.6 Å) and with E. coli tRNA^Tyr (4.3 Å); buffer exchanged on the grid to 40 mM Hepes, pH 7.5, 200 mM NaCl; C2 symmetry applied. To be noted: both partners purified.

Assay [2] deals with T2, Methanocaldococcus jannaschii RNase P protein subunit Rpp21 (Methanocaldococcus jannaschii, UniProt Q58372 1-128).
T2 construct: Rpp21, protein subunit of RNase P of Methanocaldococcus jannaschii; also called MjaRpp21; source: E. coli, expressed as the MjaRpp29-MjaRpp21 heterodimer, purified by the same procedure as Pop5-Rpp30
T2 sequence: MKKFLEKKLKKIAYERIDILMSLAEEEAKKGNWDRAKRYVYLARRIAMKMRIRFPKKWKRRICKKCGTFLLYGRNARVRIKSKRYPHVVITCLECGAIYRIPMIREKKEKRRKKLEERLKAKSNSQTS
The assay is described as above. To be noted: both partners purified.

B1: Methanocaldococcus jannaschii RNase P protein subunit Rpp29 (natural protein)
chain: MITPHNILRHELIGLKVEIVEAKNKAMIGIKGKVVDETRNTLVIEKEDGREVVIPKDIAVFLFQLKGCKVKVDGRLLIGRPEERLKKKIKILYPY
notes: Rpp29, protein subunit of RNase P of Methanocaldococcus jannaschii; also called MjaRpp29; source: E. coli, expressed as the MjaRpp29-MjaRpp21 heterodimer, purified by the same procedure as Pop5-Rpp30
For B1, the binding result in assay [1] and in assay [2] was “binds” in each case.
